T1: angiotensin converting enzyme (ACE, EC 3.4.15.1, Sigma)
T1 sequence (P12822 whole entry, species assumed, looked up): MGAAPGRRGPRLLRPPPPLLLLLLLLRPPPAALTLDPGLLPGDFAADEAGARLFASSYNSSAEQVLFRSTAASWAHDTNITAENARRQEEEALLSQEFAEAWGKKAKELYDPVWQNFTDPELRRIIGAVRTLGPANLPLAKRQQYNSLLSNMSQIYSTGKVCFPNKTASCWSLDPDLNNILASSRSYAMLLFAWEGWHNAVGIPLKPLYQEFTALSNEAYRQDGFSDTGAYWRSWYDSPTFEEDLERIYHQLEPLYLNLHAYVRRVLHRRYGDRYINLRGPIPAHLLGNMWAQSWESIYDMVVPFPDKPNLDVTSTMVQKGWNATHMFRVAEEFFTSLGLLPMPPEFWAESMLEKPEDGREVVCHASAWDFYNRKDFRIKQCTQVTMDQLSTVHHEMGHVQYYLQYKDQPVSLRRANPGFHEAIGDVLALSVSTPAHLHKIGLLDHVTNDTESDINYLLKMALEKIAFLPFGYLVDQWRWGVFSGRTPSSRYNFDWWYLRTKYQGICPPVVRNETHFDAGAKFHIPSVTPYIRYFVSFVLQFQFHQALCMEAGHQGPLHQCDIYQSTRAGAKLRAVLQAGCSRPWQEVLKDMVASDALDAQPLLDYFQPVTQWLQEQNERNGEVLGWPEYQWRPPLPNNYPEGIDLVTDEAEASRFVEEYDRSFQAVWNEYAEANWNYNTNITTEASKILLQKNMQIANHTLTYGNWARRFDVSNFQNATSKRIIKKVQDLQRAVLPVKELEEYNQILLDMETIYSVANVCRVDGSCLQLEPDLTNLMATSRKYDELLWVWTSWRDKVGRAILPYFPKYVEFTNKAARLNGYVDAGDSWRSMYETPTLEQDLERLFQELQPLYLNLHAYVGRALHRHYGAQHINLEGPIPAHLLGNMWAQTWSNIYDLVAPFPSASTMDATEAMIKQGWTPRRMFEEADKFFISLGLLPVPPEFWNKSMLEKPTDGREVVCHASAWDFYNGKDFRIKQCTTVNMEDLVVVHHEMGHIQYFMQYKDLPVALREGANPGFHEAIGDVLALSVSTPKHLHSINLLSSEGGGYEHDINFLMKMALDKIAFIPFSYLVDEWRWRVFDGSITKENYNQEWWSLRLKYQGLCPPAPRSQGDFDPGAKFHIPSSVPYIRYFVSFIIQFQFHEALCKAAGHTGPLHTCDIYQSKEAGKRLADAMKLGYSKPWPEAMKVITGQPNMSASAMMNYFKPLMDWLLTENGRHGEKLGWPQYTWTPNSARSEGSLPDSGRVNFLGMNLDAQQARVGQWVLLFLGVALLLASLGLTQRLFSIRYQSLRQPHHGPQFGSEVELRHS


target: T1, angiotensin converting enzyme (ACE, EC …); experiment: cell-based or functional assay

| ACEI activity, IC50 [µM] | Binder |
| --- | --- |
| 174 | YQIGL [YQIGL (SEQ. ID. No 1), synthetic peptide, ovalbumin 212-216] |
| > 1000 | VLLPDEVSGL [VLLPDEVSGL, synthetic peptide, ovalbumin 243-252] |
| > 1000 | ELIN [ELIN, synthetic peptide, ovalbumin 144-147] |
| > 1000 | YRGGLEPINF [YRGGLEPINF, synthetic peptide, ovalbumin 125-134] |
| 229 | SALAM [SALAM (SEQ. ID. No 8), synthetic peptide, ovalbumin 36-40] |

Second part, the binder before the results:

| Binder | ACEI activity, IC50 [µM] |
| --- | --- |
| ESIINF [ESIINF, synthetic peptide, ovalbumin 256-261] | > 1000 |
| RADHPFL [RADHPFL (SEQ. ID. No 3), synthetic peptide, ovalbumin 359-365] | 6.2 |
| RDILNQ [RDILNQ (SEQ. ID. No 7), synthetic peptide, ovalbumin 84-89] | 436 |
| YAEERYPIL [YAEERYPIL (SEQ. ID. No 6), synthetic peptide, ovalbumin 106-114] | 4.7 |

From patent publication US20060280804A1 (CONSEJO SUPERIOR DE INVESTIGACIONES CIENTIFCAS, published 2006)
